Here are results for three molecules from patent US20090239794A1, “HCV F PROTEIN AND USES THEREOF” (priority 2004, published 2009).

The assay addresses HLA-A*0201 on the surface of T2 cells (human). The assay can be described thus: T2 peptide binding assay, W6/32-FITC flow cytometry.
On to CCRAGALDWVCARRE (modifications not checked) [F protein peptide F37-51], for which the peak fluorescence, % of the level obtained with NS3 1406-1415 was 79.2%.
The value for PVALGLAGAPQTPGV (modifications not checked) [F protein peptide F101-115] was 83.2%; that for VRSLVEFTCCRAGAL (modifications not checked) [F protein peptide F29-43] was 87.6%.
